Reference: patent publication US20210261685A1 (Alector, published 2021)
Substitutions are numbered along the chain they refer to.

T1: murine MerTK extracellular domain (ECD), recombinant (mouse, UniProt Q60805 19-497)
T1 construct: also called moMerTK; mouse MerTK; not shown: polyHis tag or TEVS/Thrombin/murine IgG2a Fc tag
T1 sequence: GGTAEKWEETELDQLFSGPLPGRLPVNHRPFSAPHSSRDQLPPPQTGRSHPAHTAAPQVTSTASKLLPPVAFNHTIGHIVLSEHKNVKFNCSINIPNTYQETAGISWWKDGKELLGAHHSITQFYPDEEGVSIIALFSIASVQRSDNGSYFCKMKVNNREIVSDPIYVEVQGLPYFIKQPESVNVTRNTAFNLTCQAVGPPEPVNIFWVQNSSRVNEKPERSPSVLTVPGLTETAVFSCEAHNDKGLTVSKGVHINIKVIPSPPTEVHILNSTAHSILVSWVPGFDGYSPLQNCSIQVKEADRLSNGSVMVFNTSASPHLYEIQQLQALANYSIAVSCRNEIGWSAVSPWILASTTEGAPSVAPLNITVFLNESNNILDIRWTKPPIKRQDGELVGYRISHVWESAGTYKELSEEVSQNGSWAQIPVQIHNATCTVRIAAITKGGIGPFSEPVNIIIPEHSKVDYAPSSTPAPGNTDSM

T2: human MerTK extracellular domain (ECD), recombinant (human, UniProt Q12866 21-505)
T2 construct: also called huMerTK; not shown: polyHis tag or TEVS/Thrombin/murine IgG2a Fc tag
T2 sequence: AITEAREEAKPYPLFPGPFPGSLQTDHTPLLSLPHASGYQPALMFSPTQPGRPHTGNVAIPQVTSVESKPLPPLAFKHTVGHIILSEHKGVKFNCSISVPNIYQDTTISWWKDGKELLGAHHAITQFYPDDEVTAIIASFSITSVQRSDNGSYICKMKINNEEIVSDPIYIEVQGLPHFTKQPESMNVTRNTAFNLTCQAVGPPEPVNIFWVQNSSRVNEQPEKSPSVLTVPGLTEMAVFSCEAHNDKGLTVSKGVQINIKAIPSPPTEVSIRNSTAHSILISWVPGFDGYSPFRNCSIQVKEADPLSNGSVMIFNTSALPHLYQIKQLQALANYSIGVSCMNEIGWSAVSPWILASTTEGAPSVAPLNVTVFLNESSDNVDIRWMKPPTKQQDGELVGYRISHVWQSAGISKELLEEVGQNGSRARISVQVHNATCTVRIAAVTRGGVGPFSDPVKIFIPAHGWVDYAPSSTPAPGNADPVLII

T3: cyno MerTK extracellular domain (ECD), recombinant (cynomolgus monkey, UniProt Q12866 21-505 (human entry))
T3 construct: also called cynomolgus MerTK; not shown: polyHis tag or TEVS/Thrombin/murine IgG2a Fc tag
T3 chain: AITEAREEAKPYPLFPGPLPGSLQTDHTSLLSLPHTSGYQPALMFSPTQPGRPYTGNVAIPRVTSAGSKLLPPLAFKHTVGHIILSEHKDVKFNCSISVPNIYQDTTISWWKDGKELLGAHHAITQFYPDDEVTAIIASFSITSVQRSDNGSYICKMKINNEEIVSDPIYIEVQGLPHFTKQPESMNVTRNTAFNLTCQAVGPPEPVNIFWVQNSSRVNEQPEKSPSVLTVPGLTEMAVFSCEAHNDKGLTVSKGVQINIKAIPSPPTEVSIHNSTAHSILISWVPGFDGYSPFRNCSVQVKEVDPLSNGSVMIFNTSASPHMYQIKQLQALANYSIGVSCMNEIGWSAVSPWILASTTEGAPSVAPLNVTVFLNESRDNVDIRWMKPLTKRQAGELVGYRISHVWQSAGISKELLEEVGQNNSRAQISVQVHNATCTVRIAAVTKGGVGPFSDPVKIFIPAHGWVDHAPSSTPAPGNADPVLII

B1: MTK-15.4 (antibody, human IgG1, V domains shown)
VH: QVQLVQSGSELKKPGASVKVSCKASGYTFTNYGVHWVRQAPGQGLEWMGWINTYTGEPTYAQGFTGRFVFSLDTSVSTAYLQISSLKAEDTAVYYCARGNRYAYMDYWGQGTLVTVSS
VL: EIVLTQSPATLSLSPGERATLSCRASSSVGYMHWYQQKPGQAPRPLIYATSNLASGIPARFSGSGSGTSYTLTISSLEPEDFAVYYCQQWSSNPRTFGGGTKVEIK
B2: MTK-15.1 (antibody, human IgG1, V domains shown)
VH: B1 VH with M105Q
VL: B1 VL with G30S
B3: MTK-15.2 (antibody, human IgG1, V domains shown)
VH: B1 VH with I51G
VL: B1 VL with G30S
B4: MTK-15.3 (antibody, human IgG1, V domains shown)
VH: B1 VH
VL: B1 VL with S28H, G30S
B5: MTK-15.5 (antibody, human IgG1, V domains shown)
VH: B1 VH with A97T, N100T
VL: B1 VL
B6: MTK-15.6 (antibody, human IgG1, V domains shown)
VH: B1 VH with T59Y
VL: B1 VL
B7: MTK-15.7 (antibody, human IgG1, V domains shown)
VH: B1 VH with A97V
VL: B1 VL with S28G, G30S
B8: MTK-15.8 (antibody, human IgG1, V domains shown)
VH: B1 VH with N100V
VL: B1 VL with L77P
B9: MTK-15.9 (antibody, human IgG1, V domains shown)
VH: B1 VH with N100Y
VL: B1 VL with V29T, G30S
B10: MTK-15.10 (antibody, human IgG1, V domains shown)
VH: B1 VH with T30A, T55Q, A97T, N100A
VL: B1 VL
B11: MTK-15.11 (antibody, human IgG1, V domains shown)
VH: B1 VH with T30A, T55E, M105Q
VL: B1 VL with G30S
B12: MTK-15.12 (antibody, human IgG1, V domains shown)
VH: B1 VH with T30A, T55Q, N100V
VL: B1 VL with L77P
B13: MTK-15.13 (antibody, human IgG1, V domains shown)
VH: B1 VH with M105E
VL: B1 VL with G30Q
B14: MTK-16.1 (antibody, V domains shown)
VH: QVQLVQSGSELKKPGASVKVSCKASGYTFTNHGMNWVRQAPGQGLEWMGWINTYTGEPTYAQGFTGRFVFSLDTSVSTAYLQISSLKAEDTAVYYCARKGVTAARYFDYWGQGTLVTVSS
VL: DIQMTQSPSSLSASVGDRVTITCKASQNVRTAVAWYQQKPGKAPKRLIYLASNRHTGVPSRFSGSGSGTEFTLTISNLQPEDFATYYCLQHWNYPLTFGGGTKVEIK
B15: MTK-16.2 (antibody, V domains shown)
VH: B14 VH with Q62D, G63D, T65K
VL: B14 VL with K24R, V104L
B16: MTK-29.8 (antibody, human IgG1, V domains shown)
VH: QVQLVQSGSELKKPGASVKVSCKASGYIFTTYGLSWVRQAPGQGLEWMGWINTYSGVPTYTDDFKGRFVFSLDTNVSTAYLQISSLKAEDTAVYYCARYTNYGVFDYWGQGTLVTVSS
VL: DIQLTQSPSFLSASVGDRVTITCRASSSVGYMHWYQQKPGKAPKLLIYATSNLAQGVPSRFSGSGSGTEFTLTISSLQPEDFATYYCQQWGSLPFTFGQGTKLEIK
B17: MTK-29.5 (antibody, human IgG1, V domains shown)
VH: B16 VH with T31S, N75S, S85P
VL: B16 VL
B18: MTK-29.7 (antibody, human IgG1, V domains shown)
VH: B16 VH with G26S, I28T, L34M, T59S, G66A, N75S
VL: B16 VL
B19: MTK-29.9 (antibody, human IgG1, V domains shown)
VH: B16 VH with T31S, N75S
VL: B16 VL with E69G
B20: MTK-29.12 (antibody, human IgG1, V domains shown)
VH: B16 VH with G26S, I28T, L34M, Y54M, N75S
VL: B16 VL with S9G
B21: MTK-29.13 (antibody, human IgG1, V domains shown)
VH: B16 VH with G26S, I28T, L34M, Y54A, N75S
VL: B16 VL with K38E
B22: MTK-29.14 (antibody, human IgG1, V domains shown)
VH: B16 VH with G26S, I28T, L34M, T59S, G66A, N75S
VL: B16 VL with S75F

Experiments:
Assay in all cases: SPR, Carterra LSA, antibody immobilised
[1] = target: T1, murine MerTK extracellular domain …
Procedure: (§1) Binding kinetics of humanized and affinity-matured anti-MerTK antibodies of the present disclosure to human, murine, and cynomolgus MerTK proteins were evaluated as follows. Briefly, anti-MerTK antibodies were prepared by diluting to 10 μg/ml in 10 mM Acetate, pH 4.25 (Carterra, Salt Lake City, Utah), at 300 μl/well. A HC200M sensor chip (Carterra) was activated using the single channel flow cell with a 7-minute injection of a 1:1:1 mixture of 100 mM MES pH 5.5, 100 mM sulfo-NHS, 400 mM EDC (all reconstituted in MES pH 5.5; 100 μl of each mixed in vial immediately before running assay). After switching to the multi-channel array flow cell, the antibodies were injected over the activated chip in a 96-spot array for 15 minutes. The remaining unconjugated active groups on the chip were then blocked by injecting 1M Ethanolamine pH 8.5 (Carterra) for 7 minutes using the single channel flow cell.
(§2) Estimates of affinity were generated by injecting each analyte over the entire antibody array using the single channel flow cell. MerTK analytes were diluted to 33.3, 100, and 300 nM in running buffer, and injected in serial from lowest to highest concentration without regeneration. Two buffer blanks were run between each series (one species per series). Data were processed and analyzed using NextGenKIT high-throughput kinetics analysis software (Carterra). In these experiments, the anti-MerTK antibodies were human IgG1 isotype containing the Fc variant LALAPS.
(§3) The equilibrium dissociation constants (KD) were then calculated from the fitted association and dissociation rate constants (k-on and k-off) for anti-MerTK antibodies of the present disclosure.

[2] = target: T2, human MerTK extracellular domain (ECD), …
Procedure: as §1, §2, §3

[3] = target: T3, cyno MerTK extracellular domain (ECD), …
Procedure: as §1, §2, §3

Row | binding result [1] | Kd [2] | Kd [3] | Kd [1] | Binder
1 | no binding (tested: 300 nM) | – | – | – | B1
2 | – | 8.3 nM | 8 nM | – | B2
3 | no binding (tested: 300 nM) | 21.5 nM | 21.5 nM | – | B3
4 | no binding (tested: 300 nM) | 21.5 nM | 23 nM | – | B4
5 | – | 0.1 nM | 0.8 nM | 690 nM | B5
6 | – | 1 nM | 1.5 nM | – | B6
7 | – | 0.1 nM | 0.3 nM | 705 nM | B7
8 | no binding (tested: 300 nM) | 4.9 nM | 5 nM | – | B8
9 | – | 10 nM | 11.5 nM | 850 nM | B9
10 | – | 3.3 nM | 3.3 nM | 2800 nM | B10
11 | – | 12.5 nM | 12.5 nM | 140 nM | B11
12 | – | 17.5 nM | 18 nM | 114 nM | B12
13 | – | 2.3 nM | 2.8 nM | 130 nM | B13
14 | no binding (tested: 300 nM) | 86 nM | 170 nM | – | B14
15 | no binding (tested: 300 nM) | 80 nM | 160 nM | – | B15
16 | – | 23 nM | 22.5 nM | 310 nM | B16
17 | – | 4.4 nM | 4.4 nM | 135 nM | B17
18 | – | 3.6 nM | 3.2 nM | 95 nM | B18
19 | – | 5.7 nM | 5.8 nM | 140 nM | B19
20 | – | 23 nM | 21 nM | 250 nM | B20
21 | – | 13 nM | 11 nM | 170 nM | B21
22 | – | 7.6 nM | 7.3 nM | 100 nM | B22
